Test results from the nanobody polyreactivity screen of Harvey et al. (2022).

Assay: yeast display, Sf9 membrane polyspecificity reagent, FACS + sequencing; frameworks hold sequencing errors
In short: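 In a synthetic yeast display library (Saccharomyces cerevisiae BJ5465), nanobody expression was induced with galactose for 36–48 hours. FACS gates were set low and high (top ~1%) using anti-HA fluorescence for expression and streptavidin fluorescence for binding of the Sf9 membrane reagent. Each polyreactivity label is drawn from the gate of origin.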

Row | Sequence | polyreactivity (PSR sort gate)
1 | QVQLVESGGGLVQAGGSLRLSCAASGSNFQYYGMGWYRQAPGKERELVASISRSGGSTYYADSVKGRFTISRDNAKNTVYLQMNSLKPEDTAVYYCNAKEAIRRTHLTTTYRDGYWGQGTQVTVSS | low polyreactivity
2 | QVQLVESGGGLVQAGGSLRLSCAASGSIFTRYAMGWYRQAPGKERELVAVISVSGGRTYYADSVKGRFTISRDNAKNTVYLQMNSLKPEDTAVYYCATDYYRPALDYWGQGTQVTVSS | high polyreactivity
3 | QVQLVESGGGLVQAGGSLRLSCAASGFIFRRNAMGWYRQAPGKERELVASIRSGGSTKYADSVKGRFTISRDNAKNTVYLQMTSLKPEDTAVYYCNADDPGYAVPWYWFKYDYWGQGTQVTVSS | low polyreactivity
4 | QVQLVESGGRLVQAGGSLRLSCAASGRIFGRYAMGWYRQAPGKERELVAAISSSGGSTYYADSVKGRFTISRDNAKNTVYLQMNSLKPEDTAVYYCAAEIIKVAYRVAYYYWGQGTQVTVSS | high polyreactivity
5 | QVQLVESGGGLVQAGGSLRLSCAASGGTFRKYTMGWYRQAPGKERELVAAISSTGSSTYYADSVKGRFTISRDNAKNTVYLQMNSLKPEDTAVYYCAADVFSGYYWPVLEDHWGQGTQVTVSS | high polyreactivity
6 | QVQLVESGGGLVQAGGSLRISCAASGITFYGYDMGWYRQAPGKERELVAAISKSGGSTHYADSVKGRFTISRDNAKNTVYLQMNSLKPEDTAVYYCAAAYWTRLRRMDYWGQGTQVTVSS | high polyreactivity
7 | QVQLVESGGGLVQAGGSLRLSCAASGSTFSIYAMGWYRQAPGKERELVAAISFSDASTYYADSVKGRFTISRDNAKNTVYLQMNSLKPEDTAVYYCAAVVGAFKRRFYYWGQGTQVTVSS | high polyreactivity
8 | QVQLVESGGGLVQAGGSLRLSSAASGSTYVGYTMGWYRQAPGKERELVAAITRRSGSTYYAVSVKGRFTISRDNAKNTVYLQLNSLKPEDTAVYYCAKDFSRYSRVAHTEHDYWGQGTQVTVSS | high polyreactivity
9 | QVQLVESGGGLVQAGGSLRLSCAASGFILRGYAMGWYIQAPGKERELVDVITGRGDRTYYADSVKGRFTISRDNAKNTVYLQMNSLKPEETAVYYCAARAQPGGSSAIKMYYWGQGTQVTVSS | high polyreactivity
10 | QDQLVESGGGLVQAGGSLRLSCAASGIILGGYVMGWYRQAPGKERELVAALSYSGGRTDYADSVKGRFTISRDKAKNTVYLQMNILNPEDTAVYYCATEYWRYHGITKGYTRYDYWGQGTQVTVSS | high polyreactivity
11 | QVQLVESGGGLVQAGGSLRLSCAASGFTFYYYAMGWYRQSPGKERELVAAISWNGGRTYYADSVKGRFTISRDTAKNNVYLQMNSLKPEDTAVYYCDTGYPIDLGREFDYWGQGIQVTVSS | high polyreactivity
12 | QVQLVDSGGGLVQAGGSLRLSCADSGRTFWGYGKGWYRQATGKERELVATISSGGSTYYADSVKGRFTISRDNAKNTVYLQMNSLKPEDTAVYYCAARPPPTYWRYQSDYWGQGTQVTVSS | high polyreactivity
13 | QVQLVESGGGLVQAGGSLRLSCAASGRIIVDNTMGWYRQAPGQEREFVAVITSGGSTNYADSVKGRYTISRDNAKNTVYLQMNCLNPEDTAVYYCATEPGGYRFDDRPFQFGYWGQGTQVTVSS | low polyreactivity
14 | QVQHVESGGGLVQAGGSLRLSCAASGSIFSIYAMGWYRQAPGKEREFVASITVTDGSTYYADSVKGRFTISRDNAKNTVYLQMNSLKPEDTAVYYCFAVDWYGSGSSYRGSVTYWGQGTQVTVSS | low polyreactivity
15 | QVQLVESGGGLVQAGGSLRLSCAASGIILFRYAMGWYRQAPGKERELVAAISWSGGSTYYADSVKGRFTISRDNAMNTVYLQMNCLKPEDTAVYYCAADHKYYGFGEVDYWGQGNQVTVSS | high polyreactivity
16 | QVQLVESGGGLVQAGGSLRLSCAASGSIFTEYAMGWYRQAPGKERELVADINSGDITYYADSVKGRFTISRDNAKNTVYLQMNSLKPEDTAVYYCATGWYYTSSTYRSSDFDYWGQGTQVTVSS | low polyreactivity
17 | QVQLVESGGGLVQAGGSLRLSCAASGRIFSYYAMGWYRQAPGKERELVAVISRRGDNTYYADSVKGRFTISRDNAKNTVYLQMNSLKPEDTEVFYCAAYSWYAKDFDYWGQGTQVTVSS | high polyreactivity
18 | QVQLVESGGGLVQAGGSLRLSCAASGRTSLNYAMGWYRQAPGKERELVAAITRGGGGTYYADSVKGRFTISRDNAKNTVYLQMNSLIPEDTAVYYCNRVFSLYGYGWQKYDYWGQGTQVTVSS | high polyreactivity
19 | QVQLVESGGGLVQAGGSLRLSCAASGLIFGRYAMGWYRQAPGKERELVAAISSSGVRTYYADSVKGRFTISRDNAKNTVYLQMNSLNPEDTAVYYCAAYDWYISEDYRYYYFWEYDYWGQGTQVTVSS | high polyreactivity
20 | QVQLVESGGGLVQAGGSLRLSCAASGSIFRNYAMGWSRQAPGKERELVAAITSIGGGTYYADSVKGRFTISRDNAKNTVYLQMNSLKPEDTADYYCAADYGFYPYDYVYWGQGTQVTVSS | low polyreactivity
21 | QVQLVESGGGLVQAGGSLRLSCAASGSTFYRYAMGWYRQAPGKERELVAAISSSGGSTYYADSVKGRFTISRDNAKNTVYLQMNSLKPEDTAVYYCNADVHSQYDYWGQGTQVTVSS | low polyreactivity
